Literature values as cited in publication PMC6679586.
pKd: −log10 of the molar value.

Biological target: Activin A mature domain mature domain (Homo sapiens) (UniProt P08476)

- pKd: 8.30
Substance: Activin A prodomain prodomain (from UniProt P08476)
